# Experiments:
# [1] = target: SARS-CoV-2 full length spike protein, V367F mutant, expressed on CHO cells (SARS-CoV-2, UniProt P0DTC2 14-1273)
# [2] = target: SARS-CoV-2 full length spike protein, D614G mutant, expressed on CHO cells (SARS-CoV-2, UniProt P0DTC2 14-1273)
# [3] = target: T1, SARS-CoV-2 full length spike protein, V483A mutant, expressed on the surface of CHO cells (SARS-CoV-2, UniProt P0DTC2 14-1273); experiment: flow cytometry, CHO cells expressing full-length spike V483A
# T1 construct: also called SARS-CoV-2 V483A mutant
# [4] = target: T1, SARS-CoV-2 full length spike protein, …
# [5] = target: T2, SARS-CoV-2 full length spike protein, V483A mutant, expressed on CHO cells (SARS-CoV-2, UniProt P0DTC2 14-1273); experiment: flow cytometry on CHO cells expressing spike V483A
# T2 construct: also called SARS-CoV-2 V483A mutant
# [6] = target: T3, SARS-CoV-2 full length spike protein, V483A mutant (SARS-CoV-2, UniProt P0DTC2 14-1273); experiment: flow cytometry, CHO cells expressing full-length spike V483A
# T3 construct: also called SARS-CoV-2 V483A mutant
# [7] = target: T4, SARS-CoV-2 full length spike protein, V367F mutant (SARS-CoV-2, UniProt P0DTC2 14-1273); experiment: flow cytometry, CHO cells expressing full-length spike V367F
# T4 construct: also called SARS-CoV-2 V367F mutant
Binder,"median fluorescence intensity, fold over isotype control [1] [fold over isotype]","median fluorescence intensity, fold over isotype control [2] [fold over isotype]",binding result [3],further results
"antibody 508 (antibody, V domains shown) VH: EVQLVQSGAEVKKPGATVKISCKVSGYTFTDYYMHWVQQAPGKGLEWMGLVDPEDGETIYAEKFQGRVTITADTSTDTAYMELSSLRSEDTAVYYCAVENMITFGGVIVKRGAFDIWGQGTMVTVSS VL: not shown",2.71,3.99,–,–
"antibody 333 (antibody, V domains shown) VH: QVHLVESGGGVVLPGRSLRLSCSASQFIFSNYDMHWVRQSPGMGLEWVAGISSDGSDKYYIDSVRGRFTISRDNAKNTLFLQMNSLTTEDTAVYSCAKGGGKFGQYWGRGTLVTVSS VL: AIQMTQSPSSLSASVGDRVTITCRASQVIRNDLAWFQQKPGEAPNLLVYSASNLQSGVPSRFSGSGSGTDFTLTISSLQPEDFATYYCLQDYSYPYTFGQGTKLDMK",–,–,no binding,–
"antibody 343 (antibody, V domains shown) VH: QVQLVESGGDVVQPGTSLRLSCAASGFTFNNYGFHWVRQAPGKGLEWVALISSDGASTHYADSVKGRFTISRDSSVNTLYLQMNSLSLEDTAVYYCATGHCGTTCYYFDYWGQGTLVSVSS VL: DIQVTQSPSYLSASVGDRVTITCRASQTISTFLQWYQQKVGKAPKLLIYAASTLQSGVPSRFSGSGSGTDFSLTISSLQPEDFATYYCQQSYSAPLSFGGGTKVEIK",–,–,no binding,–
"antibody 341 (antibody, V domains shown) VH: QLQLQESGPGLVKPSETLSLTCTVSGGSISSSSYYWGWIRQPPGKGLEWIGSIYYSGSTYYNPSLKSRVTISVDTSKNQFSLKLSSVTAADTAVYYCARRPLRYFDWLTNFDYWGQGTLVTVSS VL: EIVLTQSPATLSLSPGERATLSCRASQSVSSYLAWYQQKPGQAPRLLIYDASNRATGIPARFSGSGSGTDFTLTISSLEPEDFAVYYCQQRSNWPITFGQGTRLEIK",–,–,no binding,"median fluorescence intensity, fold over isotype control [4]: 1.01 fold over isotype"
"antibody 351 (antibody, V domains shown) VH: HVQLVESGGGVVQPGRSLRLSCAASGFISRNYGMEWVRQAPGQGLEWVAGIWYDGSKKYYADSVKGRFTISRDTSKNTLFLQMDSLRAEDTAVFYCATATKTFCGGDCPPGGMDVWGQGTTVTVST VL: SYVLTQPPSVSVAPGKTAWITCVGNNIESESVHWYQQRPGQAPVLVIYYDSDRPSGIPERFFGSNSGNTATLTISRVEAGDEADYYCQVWDSNSDLMVFGGGTKLTVL",–,–,no binding,–
"antibody 467 (antibody, V domains shown) VH: QVQLVQSGAEVKKPGASVKVSCKASGYTFISYGISWVRQAPGQGLEWMGWISAYNGNTNYAQKLQGRVTMTTDTSTSTAYMELRSLRSDDTAVYYCARGLWPGYYYGSGSYSAFHIWGQGTMVTVSS VL: QSALTQPPSASGSPGQSVSISCTGTSSDVGGYNYVSWYQQHPGKAPKLMIYEVSKRPSGVPDRFSGSKSGNTASLTVSGLQAEDEADYYCSSYAGSNKVFGGGTKLTVL",30.6,7.54,–,–
"antibody 502 (antibody, V domains shown) VH: QVQLVQSGAEVKKPGASVKVSCKASGYTFTSYYMHWVRQAPGQGLEWMGIINPSGGSTSYAQKFQGRVTMTRDTATSTVYMELSSLRSEDTAVYYCARGGGQISMIIVVMDDAFDIWGQGTMVTVSS VL: not shown",51.8,77.3,–,–
"antibody 501 (antibody, V domains shown) VH: QVQLVQSGAEVKKPGASVKVSCKASGYTFTSYYVHWVRQAPGQSLEWMGVISPSTGSTTYAQNFQGRVTMTRDTSTTTVYMELSSLRSEDTAVYYCARDDYYDSTRYFDLWGRGTLVTVSS VL: QSALTQPASVSGSPGQSISFSCTGTSSDIGAYNYVSWYQQHPGRAPKLMIYDVGNRPSGVSNRFSGSKSGNTASLTISGLQAEDEADYYCSSYTSSSTQVFGTGTKVTVL",30,46.1,–,–
"antibody 380 (antibody, V domains shown) VH: QVQLVESGGGVVQPGRSLRLSCAASGFTLKNYGMHWVRQAPGKGLEWVIVLSFDGSDEYKADSVRGRFTVSRDNSKNTLFLQMNSLRPDDTAVYYCAREQPTMIEGGRGPFDIWGQGTMVTVSS VL: EVVMTQSPATLSVSPGDRATLSCRASQGVNSNLAWYQQKPGQAPRLLIYAASTRATGIPARFSASGSGTHFTLTISSLQSEDFAVYYCLQYNNWPPWTFGQGTKLEIK",–,–,–,binding result [5]: no binding
"antibody 482 (antibody, V domains shown) VH: EVQLVESGGGLVQPGGSLRLSCAASGFTFSSYWMTWVRQAPGKGLEWVANIKQDGSEKYYVDSVKGRFTISRDNAKNSLYLQMNSLRAEDTAVYYCARGVGSWYLGFDYWGQGTLVTVSS VL: NFMLTQPHSVSESPGKTVTISCTGSSGSIASNYVQWYQQRPGSAPTTVIYEDNQRPSGVPDRFSGSIDSSSNSASLTISGLKTEDEADYYCQSYDGSSYVFGTGTKVTVL",2.89,14.3,–,–
"antibody 434 (antibody, V domains shown) VH: QVQLVQSGAEVKKPGASVQVSCKASGYTFSDYYIFWVRQAPGQGLEWMGCINPKSGGAIYAQRFQGRVTMTRDTSFNTAYMEMNRLGSDDTAVYYCVTRGPPDIAASGFAWHLDVWGQGTTVTVSS VL: DIVMTQSPLSLPVTPGEPASISCRSSQSLLSSNGYNYLEWYLQKPGQSPQLLMYLGSNRASGVPDRFSGSGSGTDFTLKINRVEAEDVGVYYCMQALQTPLTFGGGTKVEIK",–,–,–,binding result [6]: no binding
"antibody 432 (antibody, V domains shown) VH: QVQLQESGPGLVKPSQTLSLTCTVSGGSISSGGYYWNWIRQHPGKGLEWIGYIYDSGSTYYNPSLKSRLTLSIDTSQNQFSLRRTSVTAADTAVYYCARGRQYDYDRTGLQYYFDYWGQGTLVTVSS VL: EIVLTQSPGTLSLSPGERATLSCRASQSFSSSYLAWYQQKPGQAPRLLIYGASSRATGIPDRFSGSGSGTDFTLTISRLEPEDFAVYYCQQYGTSSLTFGGGTKVEIK",–,–,–,binding result [6]: no binding; binding result [7]: no binding
"antibody 332 (antibody, V domains shown) VH: QVTLRESGPALVKPTQTLTLTCTFSGFSLSTSGMCVSWIRQPPGKALEWLALIDWDDDKYYSTSLKTRLTISKDTSKNQVVLTMTNMDPVDTATYYCARIHDDILTGYHYVDYWGQGTLVTVSS VL: not shown",–,–,no binding,–
"antibody 443 (antibody, V domains shown) VH: QMRLEESGPGLVKPSETLSLTCTVAGGSITSSDYFWGWLRQSPGKGLEWIASTYHGGSIQYHPALKSRVTISVDASKNQISLRLSSVTAADTAVYYCARDRGDDGPMGTYYFDHWGQGALVTVSS VL: QSVLTQPPSVSGAPGQSVTISCAGSSSNIGAGHDVHWYQQIPGTAPKLLICGNTNRPSGVPERFSGSRSGTSASLAITGLQAEDEAVYYCQSYDPSHVFFGTGTKLTVL",–,–,–,binding result [6]: no binding
"antibody 506 (antibody, V domains shown) VH: QITLKESGPTLVKPTQTLTLTCTFSGFSLSTSGVGVGWIRQPPGKALEWLALIYWDDDKRYSPSLKSRLTITKDTSKNQVVLTMTNMDPVDTATYYCAHHSLSSIFDYWGQGTLVTVSS VL: QSALTQPASVSGSPGQSITISCTGTSSDVGDYNYVSWYQQHPGKAPKLMIYEVSNRPSGVSNRFSGSKSGNTASLTISGLQAEDEADYYCSSYTSSSTVFGGGTKLTVLG",42.3,69.5,–,–
